B1: R2C7-1 monoclonal antibody (antibody, V domains shown)
VH: EVQLQQSGPELVKPGASVKISCKASGYSFTDYFINWVIQRHGKSLEWVGRINPYNGGSFYNQKFKDKATLTVDKSSNIAHMELRSLASEDSAIYYCARSGGNGYDYWGQGTTLTVSS
VL: DIVMTQAAPSVPVIPGESVSISCRSSKSLLHSNGNTYLYWFLQRPGQSPQLLIYRMSNLASGVPDRFSGSGSGTAFTLRISRVEAEDVGVYYCMQHLEYPYTFGGGTKVEIK
notes: Mouse monoclonal antibody purified from hybridoma supernatant; An IgG2a isotype antibody served as its control; also called R2C7-1 mAb
B2: R2C9-11 monoclonal antibody (antibody, V domains shown)
VH: QVQLQQPGAELVKPGASVKLSCKASGYTFTSYWMHWVKQRPGQGLEWIGEINPSNGRTNYNEKFKSKATLTVDKSSSTAYMQLSSLTSEDSAVYYCANLYFDVWGAGTTVTVSS
VL: DIVMTQSPSSLSVSAGEKVTMSCKSSQNLLNSGNQKYYLAWYQQKPGQPPKLLIYGASIRESGVPDRFIGSGSGTDFTLTISSVQAEDLAVYFCQSDHSYPYTFGGGTKLEIK
notes: Mouse monoclonal antibody purified from hybridoma supernatant; An IgG2a isotype antibody served as its control; also called R2C9-11 mAb

Tests used:
VEGFR2 (KDR)-IgD 6-7 = molecular target: T1, VEGFR2 (KDR)-IgD 6-7 (UniProt P35968 551-753); test: Biacore; antibody as flow analyte, KDR-IgD6-7 as ligand
T1 construct: domain: IgD6-7; GST-tagged recombinant protein from E. coli by the methods; also called recombinant IgD6-7 of VEGFR2; VEGFR2-ED Ig D6-7; not shown: GST tag from the pGEX-4T-1 vector
T1 sequence (P35968 551-753): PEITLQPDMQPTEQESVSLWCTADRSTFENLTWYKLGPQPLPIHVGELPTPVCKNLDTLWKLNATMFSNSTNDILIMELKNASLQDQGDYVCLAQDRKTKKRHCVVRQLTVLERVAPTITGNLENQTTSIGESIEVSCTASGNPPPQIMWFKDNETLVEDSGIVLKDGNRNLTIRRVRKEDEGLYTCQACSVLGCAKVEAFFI

VEGFR3 IgD3-4 [1] = molecular target: T2, VEGFR3 IgD3-4 (UniProt P35916 219-415, limits assumed); test: native gel electrophoresis and immunoblot
T2 construct: domain: IgD3-4; also called VEGFR3-ED Ig D3-4-myc; not shown: myc tag (pCMV6-XL6-myc vector)
T2 sequence (looked up): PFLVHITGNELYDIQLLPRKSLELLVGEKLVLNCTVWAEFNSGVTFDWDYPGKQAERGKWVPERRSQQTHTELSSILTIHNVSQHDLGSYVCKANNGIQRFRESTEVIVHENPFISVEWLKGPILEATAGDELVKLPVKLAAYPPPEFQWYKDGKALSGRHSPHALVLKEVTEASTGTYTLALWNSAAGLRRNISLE

R2-IgD4-5 = molecular target: T3, R2-IgD4-5 (human, UniProt P35968); test: cell-based competitive ELISA: R2C7-1 absorbed with the soluble domains, then bound to fixed 293T/VEGFR2 cells, OD405
T3 construct: recombinant fragment; also called immunoglobin-like domains 4-5 of VEGFR2
T3 sequence (P35968 328-548 limits assumed): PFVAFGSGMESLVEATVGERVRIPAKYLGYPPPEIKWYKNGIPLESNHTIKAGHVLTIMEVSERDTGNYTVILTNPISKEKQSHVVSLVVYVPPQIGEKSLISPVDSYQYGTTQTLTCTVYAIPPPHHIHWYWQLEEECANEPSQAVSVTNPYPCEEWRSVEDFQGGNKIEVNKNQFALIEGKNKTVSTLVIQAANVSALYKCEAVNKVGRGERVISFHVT
Description: The optimal concentration of R2C7-1 and R2C9-11 mAbs (200 μg/mL and 50 μg/mL, respectively) were absorbed with the designated doses of the individual immunoglobin-like domains of VEGFR2 (R2-IgDs) antigens. After, the fixed 293T/VEGFR2 cells were incubated with the absorbed antibodies at 37° C. for 30 min. The bound antibodies were probed with goat-anti-mouse IgG conjugated with HRP, visualized by addition of ABTS, and measured at OD₄₀₅ using the SpectraMax microplate reader. Data are represented as means±S.D. of the percentage of isotype control (CTL) in triplicate. The potential epitope locations of R2C7-1 (upper) and R2C9-11 (lower) on the VEGFR2 antigen are indicated by black lines spanning IgD6 and IgD7 in the schematics.
To define the recognition epitopes of R2C7-1 and R2C9-11 antibodies, cell-based competitive enzyme-linked immunosorbent assay (ELISA) was performed. HEK293T/VEGFR2 transfectants (5 X×10⁴/well) were coated and fixed on 96-well plates. The optimal concentrations, the highest concentration of the log phase, of R2C7-1 and R2C9-11 antibodies for binding to the cells, were determined using a standard ELISA procedure (data not shown). […]
The epitopes of R2C7-1 and R2C9-11 anti-VEGFR2 antibodies were determined by cell-based competitive ELISA. […]

VEGFR3 IgD3-4 [2] = molecular target: T2, VEGFR3 IgD3-4; test: native PAGE of the purified myc-tagged fragment, blot probed with R2C9-11
Description: FIG. 11 is a set of graphs showing determination of the binding epitopes of R2C7-1 and R2C9-11 antibodies on VEGFR3 antigen. Panel A, Cell-based competitive. ELISA. HEK293T cells expressing VEGFR3 (293T/VEGFR3) were coated in 96-well plates. The optimal concentrations of R2C7-1 and R2C9-11 mAbs were determined as described previously (data now shown). The optimal concentrations of R2C7-1 and R2C9-11 mAbs were absorbed with the designed doses of the individual immunoglobin-like domains of VEGFR3 (R3-IgDs) antigens, as indicated. The bound antibodies were immune-probed with secondary antibody conjugated with HRP, visualized by addition of ABTS, and measured at OD₄₀₅ using a microplate reader (SpectraMax). Data are represented as means±S.D. of percentage of isotype control (CTL) in triplicate. The epitope locations of R2C7-1 and R2C9-11 on the VEGFR3 antigen are indicated by the black lines spanning IgD6 in the schematics. Panel B, Native gel electrophoresis. The whole extracellular domain (R3-IgD1-7), domain 3-4 (R3-IgD3-4) and domain 6-7 (R3-IgD6-7) were constructed, expressed in the E. coli, and purified using the anti-Myc affinity purification system. […] The binding of R2C7-1 and R2C9-11 to the VEGFR3 truncated antigens was evaluated with native gel electrophoresis to confirm the epitopes of R2C7-1 and R2C9-11 mAbs (middle and right, respectively). […]

Binder	koff (VEGFR2 (KDR)-IgD 6-7)	binding result (VEGFR3 IgD3-4 [1])	binding result (R2-IgD4-5)	binding result (VEGFR3 IgD3-4 [2])
B1	1.1e-05 s⁻¹	no binding	no binding (tested: 20 (unit not printed on the sheet))	–
B2	–	–	–	no binding
